139 substances from the supplement of paper PMC12042874 can be followed below.

± gives the uncertainty stated by the source.

The nature of this data set: amyloid nucleation score (Sup35N fusion, yeast selection) (log enrichment); library NNK2; higher = more nucleation; inactive = no reads after selection. Put shortly:
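Plasmid inserts were Illumina-sequenced at input and output from psi-negative yeast expressing Sup35N fused to peptides of 20 random codons. The yeast were induced with 100 μM copper sulfate for 24 hours and grown 7 days at 30°C on medium lacking adenine and uracil, and sequences with under 100 input reads were excluded. Nucleation score is the DiMSum log enrichment of output over input reads, centred on the mode score of non-aggregating sequences.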
In turn, SACIIVN registered an amyloid nucleation score of -0.012 ± 1.1.
Regarding STVMWLRASLRIQNYTRGDT, the amyloid nucleation score amounted to 4.54 ± 0.052.
Substance IKSRICISSYNNDMCGRFVL came in with an amyloid nucleation score of -1.86 ± 0.62.
In turn, SILFFKGGLRRSLEHLACTA yielded an amyloid nucleation score of 0.635 ± 0.52.
For the substance WTYGVTRLSSLCSAIDLSLG, the amyloid nucleation score was -0.598 ± 1.1.
In the case of IESRL it was “inactive”; in that of NIPLLLMFHSTIWFKMHIWE, 1.51 ± 0.11.
In turn, LLHGSLWAQSMSLCWLNVTG came in with an amyloid nucleation score of 4.24 ± 0.088.
The same measure for RHFHGGSSIAARAVTWAGQG: 1.5 ± 0.44.
Substance IKYNEVVVVRWEANGRFE displayed an amyloid nucleation score of 4 ± 0.063.
The same measure for LLFKMAYRPLWHDNNMMTCM: 0.112 ± 0.79; for LFMLYCFHLQDMKRVQICVH: 0.188 ± 0.19; for LYAECFYATILNGDECRWRT: 0.344 ± 0.31.
In the case of ITSHVDAAVEFPNVSFSHGV, the amyloid nucleation score was found to be 1.37 ± 0.47.
GPNDWRNCFRD came in with an amyloid nucleation score of 0.401 ± 0.56.
Consider HRWVVWEYTGLAFYLAALEY, for which the amyloid nucleation score is -0.469 ± 0.36.
IAIPSDF came in with an amyloid nucleation score of -0.214 ± 0.49.
Turning to CDAGFEIVLSLIN, the amyloid nucleation score is -0.828 ± 0.74.
ASIYNFYVLNSPFLF registered an amyloid nucleation score of 4.73 ± 0.081.
TVYEMGASMLVKILHWKVLN gave an amyloid nucleation score of -0.801 ± 0.38.
For FSFYECLRGFFSNVDARCQV, the amyloid nucleation score worked out at 1.51 ± 0.11.
Regarding SFLYLPDGTDMI, the amyloid nucleation score was found to be 0.171 ± 0.29.
For LLKKRANGYHYSKNLKCPAR, the amyloid nucleation score is -1.29 ± 1.1.
On to SFDVLL, for which the amyloid nucleation score was -0.568 ± 0.64.
Substance IFYCFGKLDA yielded an amyloid nucleation score of 5.18 ± 0.072.
In turn, SLCPCLMIIS showed an amyloid nucleation score of -0.852 ± 0.38.
In the case of FHINAFISTWFSDNFCFCDY it was 1.31 ± 0.22; in that of AAGRDVARAFGSLVQKLGVG, 4.88 ± 0.097; in that of LPYYKHCNRLTNVTCLYKRR, 3.34 ± 0.15.
With GVLGTLF, the amyloid nucleation score is -1.13 ± 0.76.
FYRSGEHRRSCRVRVVYGEL: the amyloid nucleation score was determined as 0.397 ± 0.64.
As for GCWSPKLSIGRRSRSALYRG, the amyloid nucleation score amounted to 1.2 ± 0.66.
In turn, NRHMLNTDRRPQVRLHFGTL yielded an amyloid nucleation score of 0.232 ± 0.37.
Consider TGAFPDCLALMYKGAEEVER, for which the amyloid nucleation score stood at 0.011 ± 0.28.
With GSLLDVTHRRKVLSKSMRGL, the amyloid nucleation score turned out to be 0.016 ± 0.35.
For DRVCAGLKPVRNN, the amyloid nucleation score amounted to 0.836 ± 0.31.
The substance KGKDS gave an amyloid nucleation score of -0.037 ± 0.39.
SYHRQRSNTFTAKLQCSRSW yielded an amyloid nucleation score of 0.307 ± 0.56.
The same measure for SRDCVRDLSVMCSLWKWFPV: -0.394 ± 1.1; for QVRELVVLNSMGYPSSW: -0.188 ± 0.41; for TRSPEYNCRSVEGTVSDKDK: -0.832 ± 0.49.
Consider SPLYLTLCMTLQVYGSR, for which the amyloid nucleation score is 4.04 ± 0.073.
TVAMSGASQYDEYVSESMMT gave an amyloid nucleation score of 0.061 ± 0.27.
In the case of WMGIWYGCVWVFGMVGANNR, the amyloid nucleation score came out at 2.2 ± 0.063.
Turning to GMESSMVRNVEHVKERVYIE, the amyloid nucleation score turned out to be 3.6 ± 0.1.
For QSLFFVI, the amyloid nucleation score was -0.395 ± 0.48.
In the case of AINAKRHTWLFNLHSTFLCF it was 2.8 ± 0.14; in that of TLHNYCYPMIRSCGQSPGRF, 0.208 ± 1.1; in that of LSGLRRPNRFLYT, -0.897 ± 0.43.
VLMKGRDPSVSGLKIEYLGN yielded an amyloid nucleation score of 0.193 ± 0.19.
In the case of ANKTVFVLEMVGVRGFYLMP, the amyloid nucleation score came out at 2.66 ± 0.098.
RNTYRRGGLPFVAYNRTSVG yielded an amyloid nucleation score of 0.125 ± 0.28.
In the case of VFEYFRCPYIHNLLFFSAWL it was 1.9 ± 0.19; in that of TSYRVRGVGSSELCGSLKLR, 0.627 ± 0.36; in that of GWVNRIYTRQLECSSLEYFF, 3.17 ± 0.11.
In the case of AALELSRNKFSVRIICVLLW it was -0.238 ± 1.1; in that of GGTVNYFNTLQRSMGNVESV, 3.66 ± 0.046; in that of VGVLNSIKPYLCVSAKRKCV, 0.09 ± 0.74.
YKDHGCNDSWK: the amyloid nucleation score was -0.572 ± 0.44.
In the case of VVILTFKAVYTAKFYACCAV, the amyloid nucleation score is -0.104 ± 0.45.
CFSSVIFAMIFVRNR gave an amyloid nucleation score of 1.73 ± 0.21.
Regarding GPFLMSVTLVYLFVFMFERL, the amyloid nucleation score is -0.769 ± 0.36.
LTTGKLYFSLEMYT yielded an amyloid nucleation score of -0.653 ± 0.63.
LVLFCAFRVTLGFSQTLNSM registered an amyloid nucleation score of -0.003 ± 0.8.
KFWDLC yielded an amyloid nucleation score of 0.047 ± 0.45.
For the substance SSLVVMMGILMEVTVAGLGV, the amyloid nucleation score was 0.241 ± 0.37.
Substance SALCAYIQSLFNDCRTLDKW gave an amyloid nucleation score of -0.5 ± 0.44.
On to VISHRKPFE, for which the amyloid nucleation score is -0.283 ± 1.
In turn, IMSFKFENC came in with an amyloid nucleation score of 1.78 ± 0.26.
On to LLMMRGSRVSNS, for which the amyloid nucleation score is -0.763 ± 0.39.
The same measure for TRDILGRGVDQFFIVSYRFN: -1.11 ± 0.45.
The same measure for ELYRCA: 0.744 ± 0.22; for KVIPVALNTRIAWGTHRLMM: 0.958 ± 0.27; for GGFRWSIQEHWYCTNAYSTD: 0.734 ± 0.81.
For FMNNMSWLKNFILTWIYKRR, the amyloid nucleation score result was “inactive”.
IGTEWVFVM: the amyloid nucleation score was determined as 0.17 ± 0.64.
Turning to LLLPSAGKGSL, the amyloid nucleation score is 0.219 ± 1.
With SQPHYGRASACRSSSSR, the amyloid nucleation score amounted to 0.831 ± 0.51.
Take TTTESMRIWPTNRFKRCTLQ: the amyloid nucleation score worked out at 0.582 ± 0.2.
In the case of DGVSVPSCRLKRKAVIAGWL it was 0.662 ± 0.4; in that of TSIILGFFLMTTLQN, “inactive”.
The substance WIMNKANNCKCFIEDTNWS displayed an amyloid nucleation score of 7.352 ± 0.044.
The same measure for FCLLIGLLFTYWLSINFAIT: “inactive”.
Consider TVMLFIVHLPCDRTFYL, for which the amyloid nucleation score was 0.682 ± 0.45.
The same measure for LDYLGETNLLVRWHLAVTAS: 0.626 ± 0.16; for ITVFAGFLRCCYLCFLDNHS: “inactive”.
For PLGSNACPTHFSCD, the amyloid nucleation score result was “inactive”.
In the case of HSFHTVSTARRLKQDPYMR, the amyloid nucleation score was -0.387 ± 0.64.
In the case of WWFLKLDGRLPKLWAFLTMG it was -0.22 ± 0.23; in that of MNACSQGVSQSSDFQL, 5.08 ± 0.066; in that of NNNGV, 1.45 ± 0.13.
The same measure for RFSGASNLVESPIKWIVGAH: 4.96 ± 0.06.
In turn, RSCYNFGKGLCVFMTLARLW showed an amyloid nucleation score of -0.82 ± 0.48.
The same measure for SPHASMTIVIF: 1.04 ± 0.22.
SKWYVGRHFPPWPR yielded an amyloid nucleation score of 0.769 ± 0.24.
SMPMGGERIWVIYCRFQVLS: the amyloid nucleation score was -0.585 ± 0.35.
On to ALWTSC, for which the amyloid nucleation score came to 2.35 ± 0.078.
The substance LVGDRNDVLPVFVRSRRRVP gave an amyloid nucleation score of 0.53 ± 0.56.
IILRSCMYCGSLAIIKGWMS: the amyloid nucleation score came out at 2.91 ± 0.12.
Substance SELPDIRWHTGWMFLSCAWN had an amyloid nucleation score of -0.397 ± 0.63.
With LYLCGWVGRSMGFDARPCHF, the amyloid nucleation score was determined as 3.38 ± 0.098.
Turning to STSVWRGLSRPRNVQRRLDT, the amyloid nucleation score is -0.985 ± 0.42.
The same measure for QFDMEQFVQCPGTMSSRAVG: 5.04 ± 0.059.
The same measure for TSFHYCCSR: 6.146 ± 0.03; for NRVLSFPRWGAIYVYTMTEF: -0.892 ± 1.1; for CVSEARRIE: -0.36 ± 0.35.
Take VTVRAQY: the amyloid nucleation score is -0.497 ± 0.45.
Substance VLHRLRSLLERFLFYVDLIS came in with an amyloid nucleation score of 0.355 ± 0.65.
Regarding GSRARNLIASAQYYNG, the amyloid nucleation score entry is “inactive”.
Turning to LRSLGAGAIYMPALQCRSRS, the amyloid nucleation score worked out at 0.255 ± 0.5.
For SIAGVIMVDSSSLSM, the amyloid nucleation score is -1.01 ± 0.78.
With MASAVNCESCISSGRVRFSG, the amyloid nucleation score is 0.547 ± 0.81.
In the case of YSNANGRTRVWGPRERKKDQ it was -0.004 ± 0.65; in that of KLVTYVPSNKTNCHDDDGTY, -0.678 ± 0.56.
Regarding SKQTITFRSVQEDSWRRFGH, the amyloid nucleation score came to 5.49 ± 0.076.
For the substance AAFRSTFDCTTVVLRSPSVS, the amyloid nucleation score was -0.345 ± 0.33.
SWFRFCMYWFSDCRNILGS gave an amyloid nucleation score of 4.58 ± 0.051.
NVYDRGVIGYMSNNVHTEGI: the amyloid nucleation score was -1.07 ± 1.1.
The substance GSICAHGECF gave an amyloid nucleation score of 0.57 ± 0.81.
As for TIKRLLKDFPLIFLRISGST, the amyloid nucleation score result was “inactive”.
In turn, VRLLGYIWKLLPHVVNQKV had an amyloid nucleation score of 0.31 ± 0.46.
SLARSTRFLYWSGNELVFIS displayed an amyloid nucleation score of 3.66 ± 0.082.
For NFASFCPFFS, the amyloid nucleation score stood at 0.053 ± 0.39.
SSAYQMSEY had an amyloid nucleation score of 0.072 ± 1.1.
As for RCFGFRVVRFVV, the amyloid nucleation score worked out at 0.014 ± 0.2.
As for LCILVFRGASRSLFSGGVFT, the amyloid nucleation score was -0.199 ± 0.76.
Consider IYPLWLMKSGIRLLCGKMCL, for which the amyloid nucleation score was found to be 0.607 ± 0.34.
On to GVLRQEFYKSANNSMKQWLF, for which the amyloid nucleation score result was “inactive”.
In the case of RYQFSATPGVVRWKFEEYSD, the amyloid nucleation score was -0.047 ± 0.46.
Take ECERERYLLGTRT: the amyloid nucleation score is 0.322 ± 0.25.
Regarding SYVYMREKSIGTDSAVLRSM, the amyloid nucleation score result was “inactive”.
The same measure for STGIGDNATFSYRISRYSVC: -0.492 ± 0.39; for VQMGRPWTGALMVSYMIVNH: 6.18 ± 0.063.
The substance DRSRLGVGGVDVLWFLHSSK showed an amyloid nucleation score of 5.328 ± 0.046.
As to IICTSSPQLIVYTSVRS, the amyloid nucleation score amounted to 7.08 ± 0.042.
EFHVRGDSDGYC: the amyloid nucleation score was -1.41 ± 1.1.
Substance IQIFGVTYGSG returned an amyloid nucleation score of -0.007 ± 0.79.
On to CSRKDYSYRVMKFVFCIYGL, for which the amyloid nucleation score worked out at 6.45 ± 0.061.
In turn, HVVTCMRILFPSDKGSCFVK yielded an amyloid nucleation score of -0.142 ± 0.37.
